Legend:
[1] = molecular target: T1, protein tyrosine kinase-7 (PTK7) ((Jurkat T-cells)) (UniProt Q13308); experiment: AFM single-molecule force spectroscopy; conditions: fixed Jurkat T-cells on Cell-Tak glass, pulling speeds 500-24000 nm/s, measurement buffer, pH and temperature not …
T1 sequence: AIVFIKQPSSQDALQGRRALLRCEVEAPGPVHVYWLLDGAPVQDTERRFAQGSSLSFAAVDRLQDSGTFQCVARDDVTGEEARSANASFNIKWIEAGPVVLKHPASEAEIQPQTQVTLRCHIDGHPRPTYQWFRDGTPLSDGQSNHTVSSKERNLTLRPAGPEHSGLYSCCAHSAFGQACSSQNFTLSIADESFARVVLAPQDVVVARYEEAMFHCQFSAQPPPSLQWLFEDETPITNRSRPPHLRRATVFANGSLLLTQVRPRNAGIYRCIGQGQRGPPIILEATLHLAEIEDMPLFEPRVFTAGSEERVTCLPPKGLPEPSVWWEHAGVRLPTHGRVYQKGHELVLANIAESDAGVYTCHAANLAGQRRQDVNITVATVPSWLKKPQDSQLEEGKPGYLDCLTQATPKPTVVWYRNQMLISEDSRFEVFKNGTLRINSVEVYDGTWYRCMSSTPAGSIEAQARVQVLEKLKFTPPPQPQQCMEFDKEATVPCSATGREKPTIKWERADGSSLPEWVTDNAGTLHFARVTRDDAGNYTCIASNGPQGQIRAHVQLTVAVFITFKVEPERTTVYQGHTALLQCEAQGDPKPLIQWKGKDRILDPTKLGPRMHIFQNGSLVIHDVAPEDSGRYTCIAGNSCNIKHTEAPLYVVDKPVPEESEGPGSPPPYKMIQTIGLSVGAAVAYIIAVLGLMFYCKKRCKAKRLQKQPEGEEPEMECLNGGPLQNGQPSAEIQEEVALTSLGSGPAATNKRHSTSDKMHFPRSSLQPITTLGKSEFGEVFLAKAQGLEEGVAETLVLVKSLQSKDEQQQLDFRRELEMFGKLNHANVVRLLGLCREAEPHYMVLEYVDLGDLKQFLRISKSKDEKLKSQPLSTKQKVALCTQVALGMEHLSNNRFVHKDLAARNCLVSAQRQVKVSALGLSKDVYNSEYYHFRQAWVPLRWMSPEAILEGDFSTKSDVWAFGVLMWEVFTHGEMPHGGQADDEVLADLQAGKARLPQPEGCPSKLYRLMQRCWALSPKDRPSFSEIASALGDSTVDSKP

[2] = molecular target: T1, protein tyrosine kinase-7 (PTK7) ((Jurkat T-cells)); experiment: cited value; conditions: 5' NH2 or 5' SH; Aptamer tips prepared and stored in PBS; fixed Jurkat T-cells on Cell-Tak glass; pulling speeds 500-24000 nm/s; measurement buffer, pH and temperature not …; cited from earlier work
[3] = molecular target: T1, protein tyrosine kinase-7 (PTK7) ((Jurkat T-cells)); experiment: competition (AFM single-molecule force spectroscopy); conditions: 1 uM free sgc8c blocks; 38.3% before block; Aptamer tips prepared and stored in PBS; fixed Jurkat T-cells on Cell-Tak glass; pulling speeds 500-24000 nm/s; measurement buffer, pH and temperature not …; scale: % residual binding probability of tip sgc8c

For “CACCGGGAGGATAGTTCGGTGGCTGTTCAGGGTCTCCTCCCGGTG [TDO5]”, the binding signal (% binding probability) ([1]; background level, stated not to bind PTK7, 5' NH2, Aptamer tips prepared and stored in PBS) was 8.27.
For “ATCTAACTGCTGCGCCGCGAAAATACTGTACGGTTAGA [sgc8c (tip-tethered)]”, the Kd [2] is given as 0.8 nM and the binding signal (% binding probability) ([1]; koff 5.16 ± 0.19 s-1, x_beta 0.65 ± 0.01 Å, 5' NH2 or 5' SH, Aptamer tips prepared and stored in PBS) is given as 38.3.
With “ATCTAACTGCTGCGCCGCGAAAATACTGTACGGTTAGA [sgc8c (free)]” the binding signal [3] was 10.2.
